Experiments:
Type in all cases: biochemical
[1] = Confirmation of binding mode of sialic acid with pyridylaminated lactose, HPLC of product; conditions: crude enzyme solution, CMP-NeuAc, 25° C., 18 hours
Method: To determine the binding mode of sialic acid, a reaction using PA-lactose as a substrate was then performed. The enzymatic reaction was accomplished by using the resulting crude enzyme solution and a pyridylaminated sugar chain as a glycosyl acceptor substrate. The pyridylaminated sugar chain used for analysis was pyridylaminated lactose (Galβ1-4Glc-PA, Takara Bio Inc., Japan). To 5 μl of the crude enzyme solution, 1.5 μl of 5 mM CMP-NeuAc and 1.5 μl of 10 pmol/μl glycosyl acceptor substrate were added and reacted at 25° C. for 18 hours. After the reaction, the reaction solution was treated at 100° C. for 2 minutes to inactivate the enzyme, followed by HPLC to analyze the reaction product. The HPLC system used was Shimadzu LC10A (Shimadzu Corporation, Japan) and the analytical column used was Takara PALPAK Type R (Takara Bio Inc., Japan). […] The analysis was performed under the following conditions: flow rate: 1 ml/min, column temperature: 40° C., detection: fluorescence (Ex: 320 nm, Em: 400 nm).
The crude enzyme solution prepared in (4) above from the ISH224-N1C0 or ISH224-N0C0 clone was used to examine whether sialyltransferase expressed by E. coli cells into which ISH224-N0C0/pTrc or ISH224-N1C0/pTrc had been introduced had β-galactoside-α2,6-sialyltransferase activity. […] As a result, PA-6′-sialyllactose (Neu5Acα2-6Galβ1-4Glc-PA) was detected, as in the case of Example 1.

[2] = Time-dependent induction of expression, sialyltransferase activity and productivity in E. coli homogenate; conditions: for Total enzyme activity (unit): 0.3 L culture; for Amount of transferred sialic acid / Radioactivity (CPM): 1 minute, 30° C.; for Radioactivity (CPM): crude enzyme diluted 200-fold
Method: A time-dependent induction experiment of protein expression was performed on the ISH224-N0C0 and ISH224-N1C0 clones obtained in Example 2. A single colony of E. coli TB1 having the expression vector pTrc99A carrying each clone was inoculated into LB medium (6 ml) containing an antibiotic, ampicillin (final concentration 100 μg/mL), and pre-cultured at 30° C. for about 8 hours. This pre-cultured solution was inoculated into LB medium (300 ml) containing and antibiotic, ampicillin (final concentration 100 μg/mL) and cultured with shaking at 30° C. When OD600 reached around 0.5, IPTG (isopropyl-β-D(−)-thiogalactopyranoside, Wako Pure Chemical Industries, Ltd., Japan) was added at a final concentration of 1 mM, followed by culturing with shaking at 30° C. At 4, 6, 22 and 28 hours after culturing, the cells in each culture solution were collected by centrifugation. These cells were suspended in 20 mM Bis-Tris buffer (pH 6.0) containing 0.336% […] Triton® X-100, and ultrasonically homogenized under ice cooling. The resulting homogenate was defined as a crude enzyme solution, diluted 200-fold with 20 mM cacodylate buffer (pH 5.0) containing 0.336% Triton X®-100, and then provided for activity measurement. The reaction was carried out in duplicate. The reaction conditions are as indicated in the footnote of Table 2.
Reaction Conditions Reaction composition:
Reaction time: 1 minute Reaction temperature: 30° C.

[3] = Optimum pH, temperature and salt concentration for enzyme activity
Method: The purified enzyme prepared in Example 4-1 was used to examine the optimum pH, optimum temperature and optimum salt concentration for JT-ISH-224-derived recombinant β-galactoside-α2,6-sialyltransferase N1C0.
Acetate buffer (pH 4.0, pH 4.5 and pH 5.0), cacodylate buffer (pH 5.0, pH 5.5, pH 6.0, pH 6.5 and pH 7.0), phosphate buffer (pH 7.0, pH 7.5 and pH 8.0) and TAPS buffer (pH 8.0, pH 8.5 and pH 9.0) were prepared and used for enzyme activity measurement at 25° C. at various pH values.
The enzyme activity was measured at an interval of 5° C. starting from 10° C. up to 50° C. using cacodylate buffer (pH 5.0).
The enzyme activity was measured at 30° C. using cacodylate buffer (pH 5.0) by adjusting the NaCl concentration in the reaction solution to 0 M, 0.1 M, 0.25 M, 0.5 M, 0.75 M, 1.0 M, 1.5 M or 2.0 M.

B1: ISH224-N1C0 (protein, listed as Photobacterium sp.)
chain: MSEENTQSIIKNDINKTIIDEEYVNLEPINQSNISFTKHSWVQTCGTQQLLTEQNKESISLSVVAPRLDDDEKYCFDFNGVSNKGEKYITKVTLNVVAPSLEVYVDHASLPTLQQLMDIIKSEEENPTAQRYIAWGRIVPTDEQMKELNITSFALINNHTPADLVQEIVKQAQTKHRLNVKLSSNTAHSFDNLVPILKELNSFNNVTVTNIDLYDDGSAEYVNLYNWRDTLNKTDNLKIGKDYLEDVINGINEDTSNTGTSSVYNWQKLYPANYHFLRKDYLTLEPSLHELRDYIGDSLKQMQWDGFKKFNSKQQELFLSIVNFDKQKLQNEYNSSNLPNFVFTGTTVWAGNHEREYYAKQQINVINNAINESSPHYLGNSYDLFFKGHPGGGIINTLIMQNYPSMVDIPSKISFEVLMMTDMLPDAVAGIASSLYFTIPAEKIKFIVFTSTETITDRETALRSPLVQVMIKLGIVKEENVLFWADLPNCETGVCIAV
With B1 as the molecule, how does the “β-galactoside-α2,6-sialyltransferase activity (PA-6′-sialyllactose detected)” value [1] read?
The value was “found to have β-galactoside-α2,6-sialyltransferase activity”.

And the “fold higher productivity than Pasteurella multocida-derived α2,3-sialyltransferase (6,000 U/L)” value [2]?
Its value is “about 1.8 fold”.

What about the “fold higher productivity than Photobacterium damselae-derived recombinant β-galactoside-α2,6-sialyltransferase (224.5 U/L)” value [2] of the same molecule?
The value was “about 48 fold”.

And the “Enzyme concentration in crude enzyme solution (unit/ml)” value (shortened to “Enzyme concentration”) ([2]; 4 hours after IPTG addition)?
Its value is 6.8 unit/ml.

What about the “Productivity (U/L of medium)” value ([2]; 4 hours after IPTG addition) of the same molecule?
The value was 589 U/L of medium.

And the “Total enzyme activity (unit)” value ([2]; 4 hours after IPTG addition)?
The value was 177 unit.

And the “Amount of transferred sialic acid” value ([2]; 4 hours after IPTG addition)?
Its value is 0.17 nmol.

What about the “Radioactivity (CPM)” value ([2]; 4 hours after IPTG addition) of the same molecule?
The value was 142.5 CPM.

And the “Enzyme concentration” value ([2]; 6 hours after IPTG addition)?
Its value is 14.8 unit/ml.

What about the “Productivity (U/L of medium)” value ([2]; 6 hours after IPTG addition) of the same molecule?
The value was 1285 U/L of medium.

What about the “Total enzyme activity (unit)” value ([2]; 6 hours after IPTG addition) of the same molecule?
The value was 385 unit.

And the “Amount of transferred sialic acid” value ([2]; 6 hours after IPTG addition)?
Its value is 0.37 nmol.

And the “Radioactivity (CPM)” value ([2]; 6 hours after IPTG addition)?
The value was 311.0 CPM.

And the “Enzyme concentration” value ([2]; 22 hours after IPTG addition)?
The value was 86.2 unit/ml.

And the “Productivity (U/L of medium)” value ([2]; 22 hours after IPTG addition)?
Its value is 10776 U/L of medium.

And the “Total enzyme activity (unit)” value ([2]; 22 hours after IPTG addition)?
The value was 3233 unit.

And the “Amount of transferred sialic acid” value ([2]; 22 hours after IPTG addition)?
The value was 2.16 nmol.

What about the “Radioactivity (CPM)” value ([2]; 22 hours after IPTG addition) of the same molecule?
The value was 1809.0 CPM.

And the “Productivity (U/L of medium)” value ([2]; 22 hours after IPTG addition, listed as ISH224-N1C0 clone)?
The value was 10,776 U/L of medium.

And the “Enzyme concentration” value ([2]; 28 hours after IPTG addition)?
Its value is 69.5 unit/ml.

And the “Productivity (U/L of medium)” value ([2]; 28 hours after IPTG addition)?
The value was 8946 U/L of medium.

And the “Total enzyme activity (unit)” value ([2]; 28 hours after IPTG addition)?
Its value is 2684 unit.

What about the “Amount of transferred sialic acid” value ([2]; 28 hours after IPTG addition) of the same molecule?
Its value is 1.74 nmol.

What about the “Radioactivity (CPM)” value ([2]; 28 hours after IPTG addition) of the same molecule?
Its value is 1459.0 CPM.

And the “time of maximum β-galactoside-α2,6-sialyltransferase activity after IPTG addition” value ([2]; culture at 30° C., 1 mM IPTG)?
Its value is 22 h.

And the “pH of maximum enzyme activity (optimum pH)” value ([3]; 25° C., acetate, cacodylate, phosphate, TAPS buffers pH 4.0-9.0)?
Its value is 5.0.

And the “temperature of maximum enzyme activity (optimum temperature)” value ([3]; cacodylate buffer (pH 5.0), 10° C. to 50° C.)?
The value was 30 °C.

— patent US8187838B2, “β-Galactoside-α2, 6-sialyltransferase, a gene encoding thereof, and a method for producing thereof” (Japan Tobacco Inc., priority 2006, dated 2012)
